In patent US20210299158A1 (NORTHWESTERN UNIVERSITY, published 2021):
Ends that are not written are not given here. * marks the point of attachment. Biotin = O=C1N[C@H]2[C@H](CS[C@H]2CCCCC(=O)*)N1

T1: Collagen type III (human) (human, UniProt P02461 154-1221)
T1 construct: Coated on plates; also called collagen III; COL III
T1 sequence (looked up): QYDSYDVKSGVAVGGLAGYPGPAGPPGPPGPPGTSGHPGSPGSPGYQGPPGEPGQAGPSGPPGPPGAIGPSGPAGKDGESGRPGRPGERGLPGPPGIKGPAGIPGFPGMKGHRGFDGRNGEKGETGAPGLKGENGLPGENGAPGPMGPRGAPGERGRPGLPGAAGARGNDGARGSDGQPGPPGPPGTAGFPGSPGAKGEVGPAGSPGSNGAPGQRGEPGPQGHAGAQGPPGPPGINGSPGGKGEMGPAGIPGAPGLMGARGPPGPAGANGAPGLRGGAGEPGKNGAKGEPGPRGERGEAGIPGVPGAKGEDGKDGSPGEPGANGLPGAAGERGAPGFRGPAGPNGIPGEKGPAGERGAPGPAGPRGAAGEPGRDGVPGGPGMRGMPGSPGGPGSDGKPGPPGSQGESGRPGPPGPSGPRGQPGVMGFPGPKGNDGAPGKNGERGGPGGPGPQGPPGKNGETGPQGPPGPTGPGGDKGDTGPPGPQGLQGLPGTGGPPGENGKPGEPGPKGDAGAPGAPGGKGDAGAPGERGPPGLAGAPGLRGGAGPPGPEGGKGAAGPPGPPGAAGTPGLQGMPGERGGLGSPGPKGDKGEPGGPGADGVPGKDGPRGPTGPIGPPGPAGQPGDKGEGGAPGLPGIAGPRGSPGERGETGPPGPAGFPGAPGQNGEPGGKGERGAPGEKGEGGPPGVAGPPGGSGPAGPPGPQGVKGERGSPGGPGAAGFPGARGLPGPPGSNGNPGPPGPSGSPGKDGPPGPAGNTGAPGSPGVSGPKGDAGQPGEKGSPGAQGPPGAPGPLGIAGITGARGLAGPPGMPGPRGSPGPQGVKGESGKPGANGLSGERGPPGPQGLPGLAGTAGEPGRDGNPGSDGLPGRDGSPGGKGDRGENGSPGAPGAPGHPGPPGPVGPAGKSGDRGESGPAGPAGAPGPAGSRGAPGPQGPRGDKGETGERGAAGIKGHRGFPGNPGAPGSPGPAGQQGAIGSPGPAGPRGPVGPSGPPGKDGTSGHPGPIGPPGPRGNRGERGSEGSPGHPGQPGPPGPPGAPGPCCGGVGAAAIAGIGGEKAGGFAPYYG


Experiments:
[1] = molecular target: Collagen IV (surface coated, Example 2); assay: Cy5 fluorescence after 24 hour incubation on surface coated collagen IV; conjugate at 30 mg/ml; reference is the scrambled CBPi-Hep(Cy5) conjugate
[2] = molecular target: T2, Fibronectin from human plasma (human, UniProt P02751-8 32-2296, limits assumed); assay: plate binding, biotinylated peptide on coated protein, streptavidin-594 fluorescence
T2 construct: Coated on plates; also called FN
Procedure: (§1) Peptide and ECM Binding Specificity. Collagens I, II, III, and IV, fibronectin, laminin, and Matrigel were coated onto 96-well black plates at 10 μg/cm². Biotinylated CBP or CBPi were added to coated plates at 0, 1, 10, 100, and 1000 μM overnight at 4° C., after which the plates were washed three times with PBS. Fluorescent streptavidin-594 (4 μg/mL) was added to each well and incubated at room temperature for 2 h, then thoroughly washed with PBS. The plates were read with a fluorescence microplate reader for fluorescence intensity (Ex 591 nm, Em 614 nm). All data were normalized to the background fluorescence intensity of Streptavidin-594 alone directed at each coated protein.
(§2) CBP Selectively Binds to ECM with High Specificity to Collagen IV. […] Bound peptides were subsequently probed with fluorescently labeled streptavidin. CBP, but not CBPi, bound specifically to collagen IV coated surfaces with high relative affinity, and to collagen I coated surfaces to a much lesser extent. […] Neither CBP nor CBPi binds to collagen II, collagen III, or fibronectin.

[3] = molecular target: T1, Collagen type III (human); assay: as above
Procedure: as §1, §2

Collagen type IV (mouse) [4] = molecular target: T3, Collagen type IV (mouse) (mouse, UniProt P02463 28-1669; P08122 26-1707); assay: plate binding, biotinylated CBP at 1000 µM on coated collagen IV, streptavidin-594 fluorescence normalised to background
T3 construct: Coated on plates at 10 ug/cm^2; the chains come from general knowledge; also called collagen IV; COL IV
T3 sequence (P02463 28-1669, chain 1 of 2): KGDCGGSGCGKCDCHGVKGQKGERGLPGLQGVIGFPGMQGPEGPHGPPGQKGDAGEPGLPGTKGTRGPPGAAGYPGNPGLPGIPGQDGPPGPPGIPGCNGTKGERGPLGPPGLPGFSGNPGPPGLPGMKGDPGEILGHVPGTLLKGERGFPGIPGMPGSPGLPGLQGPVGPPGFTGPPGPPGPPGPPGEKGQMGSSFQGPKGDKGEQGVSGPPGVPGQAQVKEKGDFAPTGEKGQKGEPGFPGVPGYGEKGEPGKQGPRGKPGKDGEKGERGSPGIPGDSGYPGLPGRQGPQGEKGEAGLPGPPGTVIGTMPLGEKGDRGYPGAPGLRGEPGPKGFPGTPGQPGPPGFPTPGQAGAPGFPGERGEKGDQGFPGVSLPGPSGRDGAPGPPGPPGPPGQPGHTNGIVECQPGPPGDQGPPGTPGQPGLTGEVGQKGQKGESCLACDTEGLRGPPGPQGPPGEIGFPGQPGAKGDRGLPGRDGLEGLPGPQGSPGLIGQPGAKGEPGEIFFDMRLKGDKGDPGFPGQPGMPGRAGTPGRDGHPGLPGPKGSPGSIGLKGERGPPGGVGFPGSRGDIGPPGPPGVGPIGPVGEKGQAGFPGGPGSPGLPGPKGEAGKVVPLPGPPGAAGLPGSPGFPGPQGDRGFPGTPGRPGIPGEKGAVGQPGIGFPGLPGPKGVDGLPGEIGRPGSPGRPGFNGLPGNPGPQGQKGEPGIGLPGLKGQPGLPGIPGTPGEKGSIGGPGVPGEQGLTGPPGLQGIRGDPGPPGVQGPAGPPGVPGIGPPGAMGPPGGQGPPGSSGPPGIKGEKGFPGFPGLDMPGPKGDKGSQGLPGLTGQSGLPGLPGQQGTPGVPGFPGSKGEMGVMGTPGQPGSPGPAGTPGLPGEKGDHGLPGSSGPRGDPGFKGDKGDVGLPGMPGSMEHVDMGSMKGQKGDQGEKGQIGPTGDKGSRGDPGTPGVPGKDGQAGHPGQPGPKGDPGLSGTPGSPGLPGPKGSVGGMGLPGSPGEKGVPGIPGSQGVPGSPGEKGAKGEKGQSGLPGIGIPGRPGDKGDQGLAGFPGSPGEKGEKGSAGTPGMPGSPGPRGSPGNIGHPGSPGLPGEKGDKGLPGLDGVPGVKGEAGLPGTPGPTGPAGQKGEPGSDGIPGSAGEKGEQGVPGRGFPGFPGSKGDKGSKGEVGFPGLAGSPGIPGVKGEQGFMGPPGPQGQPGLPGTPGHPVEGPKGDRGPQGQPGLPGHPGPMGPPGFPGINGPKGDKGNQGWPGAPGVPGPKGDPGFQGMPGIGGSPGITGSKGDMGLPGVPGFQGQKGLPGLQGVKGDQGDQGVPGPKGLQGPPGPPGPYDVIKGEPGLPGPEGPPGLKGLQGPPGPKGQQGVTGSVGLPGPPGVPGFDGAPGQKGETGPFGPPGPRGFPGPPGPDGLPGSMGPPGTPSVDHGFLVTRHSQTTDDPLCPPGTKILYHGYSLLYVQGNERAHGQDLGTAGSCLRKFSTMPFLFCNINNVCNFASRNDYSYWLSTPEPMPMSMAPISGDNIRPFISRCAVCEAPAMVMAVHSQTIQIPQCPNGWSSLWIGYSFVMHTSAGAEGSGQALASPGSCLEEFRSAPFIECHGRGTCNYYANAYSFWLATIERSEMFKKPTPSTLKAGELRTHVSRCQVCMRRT
T3 sequence (P08122 26-1707, chain 2 of 2): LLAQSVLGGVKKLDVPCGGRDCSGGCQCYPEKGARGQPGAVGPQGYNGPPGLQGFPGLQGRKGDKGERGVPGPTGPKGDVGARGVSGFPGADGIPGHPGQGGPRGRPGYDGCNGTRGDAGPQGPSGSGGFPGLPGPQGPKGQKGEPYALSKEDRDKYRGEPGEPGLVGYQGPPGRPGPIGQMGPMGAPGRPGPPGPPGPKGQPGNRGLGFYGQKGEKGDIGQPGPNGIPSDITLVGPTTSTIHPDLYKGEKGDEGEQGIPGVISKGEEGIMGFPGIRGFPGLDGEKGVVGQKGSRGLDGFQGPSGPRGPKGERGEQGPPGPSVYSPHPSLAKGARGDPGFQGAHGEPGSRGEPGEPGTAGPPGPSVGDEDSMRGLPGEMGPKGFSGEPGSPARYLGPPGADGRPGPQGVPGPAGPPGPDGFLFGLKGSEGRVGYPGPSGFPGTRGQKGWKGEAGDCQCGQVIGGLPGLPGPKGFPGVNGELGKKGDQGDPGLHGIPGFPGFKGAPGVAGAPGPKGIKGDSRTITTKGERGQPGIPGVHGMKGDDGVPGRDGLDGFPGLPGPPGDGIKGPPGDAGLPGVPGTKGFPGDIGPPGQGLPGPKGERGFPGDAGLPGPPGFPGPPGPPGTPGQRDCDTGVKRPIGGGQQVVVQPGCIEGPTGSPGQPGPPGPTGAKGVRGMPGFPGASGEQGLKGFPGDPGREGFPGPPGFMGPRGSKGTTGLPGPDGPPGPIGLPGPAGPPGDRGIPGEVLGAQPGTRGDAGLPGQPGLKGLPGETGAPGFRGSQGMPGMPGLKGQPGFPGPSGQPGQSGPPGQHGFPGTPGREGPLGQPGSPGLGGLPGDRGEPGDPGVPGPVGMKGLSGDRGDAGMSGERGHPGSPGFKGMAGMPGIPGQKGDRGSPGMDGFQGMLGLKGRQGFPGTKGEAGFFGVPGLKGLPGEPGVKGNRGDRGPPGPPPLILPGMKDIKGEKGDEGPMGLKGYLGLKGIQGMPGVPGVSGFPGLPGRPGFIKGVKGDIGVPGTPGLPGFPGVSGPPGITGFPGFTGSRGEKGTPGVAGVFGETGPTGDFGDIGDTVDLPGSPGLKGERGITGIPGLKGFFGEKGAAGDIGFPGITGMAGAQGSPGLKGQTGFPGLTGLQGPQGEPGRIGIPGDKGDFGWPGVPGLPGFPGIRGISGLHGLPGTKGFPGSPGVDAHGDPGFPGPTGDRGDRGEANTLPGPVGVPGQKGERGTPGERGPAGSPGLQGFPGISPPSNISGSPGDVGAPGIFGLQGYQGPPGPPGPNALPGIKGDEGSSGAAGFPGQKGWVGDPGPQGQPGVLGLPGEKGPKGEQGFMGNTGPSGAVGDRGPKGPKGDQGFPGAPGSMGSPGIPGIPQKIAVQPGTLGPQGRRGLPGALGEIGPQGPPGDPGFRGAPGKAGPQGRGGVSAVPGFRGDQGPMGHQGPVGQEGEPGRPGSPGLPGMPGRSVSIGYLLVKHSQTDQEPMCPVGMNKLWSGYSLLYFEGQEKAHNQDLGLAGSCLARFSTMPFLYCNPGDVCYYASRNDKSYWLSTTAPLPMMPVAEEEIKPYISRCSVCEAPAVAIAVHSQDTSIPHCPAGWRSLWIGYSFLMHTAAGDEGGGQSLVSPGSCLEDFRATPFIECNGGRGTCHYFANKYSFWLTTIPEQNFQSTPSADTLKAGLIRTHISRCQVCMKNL
Procedure: as §1, §2

Collagen type IV (mouse) [5] = molecular target: T3, Collagen type IV (mouse); assay: plate binding, biotinylated CBP at 100 µM on coated collagen IV, streptavidin-594 fluorescence normalised to background
Procedure: as §1, §2

Collagen type IV (mouse) [6] = molecular target: T3, Collagen type IV (mouse); assay: plate binding, biotinylated peptide on coated protein, streptavidin-594 fluorescence
Procedure: as §1, §2

Collagen type I (rat) = molecular target: T4, Collagen type I (rat) (rat, UniProt P02454 152-1207; P02466 86-1125); assay: as above
T4 construct: Coated on plates at 10 ug/cm^2; the chains come from general knowledge; also called collagen I; COL I
Procedure: as §1, §2

Row | fold binding against the scrambled CBPi control [1] | binding result [2] | binding result [3] | fold increase in surface fluorescence intensity (Collagen type IV (mouse) [4]) | fold increase in surface fluorescence intensity (Collagen type IV (mouse) [5]) | binding result (Collagen type IV (mouse) [6]) | binding result (Collagen type I (rat)) | Binder
1 | 4 fold |  |  |  |  |  |  | CQDSETRTFY (also: peptide conjugated by EDC/NHS to carboxyl groups of Cy5-labelled heparin (28 kD), attachment site not given here) [CBP-Hep(Cy5), improved batch (Heparin(Cy5)-CBP conjugate, 20 C, 10:1 molar ratio CBP:Hep-Cy5)]
2 |  | no binding (tested: 1000 µM) | no binding (tested: 1000 µM) | 12.1 fold | 3.85 fold |  |  | Biotin-CQDSETRTFY (also called biotinylated CBP) [Biotinylated collagen-binding peptide CBP (biotin-CQDSETRTFY)]
3 |  | no binding (tested: 1000 µM) | no binding (tested: 1000 µM) |  |  | no binding (tested: 1000 µM) | no binding (tested: 1000 µM) | Biotin-CDEFQRSTTY (also called biotinylated CBPi) [Biotinylated inactive, nonbinding peptide CBPi (biotin-CDEFQRSTTY)]
